Experimental data taken from paper PMC3799444.
Where a chain is given by its changes, count along the chain named. Names may count otherwise.

T1: Polλ W239Y (Homo sapiens, UniProt Q9UGP5 1-575, W239Y)
T1 sequence: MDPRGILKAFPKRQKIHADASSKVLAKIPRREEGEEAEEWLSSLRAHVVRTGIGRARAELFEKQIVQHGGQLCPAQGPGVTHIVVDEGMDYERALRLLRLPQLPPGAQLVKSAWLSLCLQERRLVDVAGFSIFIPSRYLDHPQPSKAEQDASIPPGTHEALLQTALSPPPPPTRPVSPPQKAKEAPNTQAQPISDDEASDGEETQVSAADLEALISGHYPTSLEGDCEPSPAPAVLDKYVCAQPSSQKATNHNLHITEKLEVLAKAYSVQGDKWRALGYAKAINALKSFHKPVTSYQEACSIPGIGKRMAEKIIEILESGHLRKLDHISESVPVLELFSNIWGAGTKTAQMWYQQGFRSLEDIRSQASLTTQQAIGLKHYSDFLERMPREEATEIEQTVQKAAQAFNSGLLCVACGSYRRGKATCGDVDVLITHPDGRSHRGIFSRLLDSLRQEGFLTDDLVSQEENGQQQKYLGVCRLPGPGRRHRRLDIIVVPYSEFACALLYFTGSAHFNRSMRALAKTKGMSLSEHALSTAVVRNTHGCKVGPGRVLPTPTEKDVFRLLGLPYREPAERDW

T2: Polλ Q243R (Homo sapiens, UniProt Q9UGP5 1-575, Q243R)
T2 sequence: T1 sequence with Y239W, Q243R

B1: 5 nt gap FP-P/FP-T5/FP-D (dsDNA)
DNA 1: GGCCACGCAATGTTGACGTTTTTCGACAAGACCTCAGTAT
DNA 2: GGCAGCTTGGATCTTGTCGAAAAACGTCAACATTCGCCTAGGCTTCGGCAGCATATACTGAGGTCTTGTCGAAAAACGTCAACATTGCGTGGCC
DNA 3: GCCGAAGCCTAGGCGAATGTTGACGTTTTTCGACAAGATCCAAGCTGCC
modifications: 5'-phosphate on FT-D
B2: 1 nt gap Sp1C/T13C/DG1-P (dsDNA)
DNA 1: GATCACAGTGAGTAC
DNA 2: AGAAGTGTATCTCGTACTCACTGTGATC
DNA 3: AGATACACTTCT
modifications: 5'-phosphate on DG1-P

How the values were obtained:
Assay in all cases: EMSA
Polλ W239Y = target: T1, Polλ W239Y
Polλ Q243R = target: T2, Polλ Q243R
Polµ WT = Polµ WT (Homo sapiens, UniProt Q9NP87)
Sequence of Polµ WT (Q9NP87 whole entry): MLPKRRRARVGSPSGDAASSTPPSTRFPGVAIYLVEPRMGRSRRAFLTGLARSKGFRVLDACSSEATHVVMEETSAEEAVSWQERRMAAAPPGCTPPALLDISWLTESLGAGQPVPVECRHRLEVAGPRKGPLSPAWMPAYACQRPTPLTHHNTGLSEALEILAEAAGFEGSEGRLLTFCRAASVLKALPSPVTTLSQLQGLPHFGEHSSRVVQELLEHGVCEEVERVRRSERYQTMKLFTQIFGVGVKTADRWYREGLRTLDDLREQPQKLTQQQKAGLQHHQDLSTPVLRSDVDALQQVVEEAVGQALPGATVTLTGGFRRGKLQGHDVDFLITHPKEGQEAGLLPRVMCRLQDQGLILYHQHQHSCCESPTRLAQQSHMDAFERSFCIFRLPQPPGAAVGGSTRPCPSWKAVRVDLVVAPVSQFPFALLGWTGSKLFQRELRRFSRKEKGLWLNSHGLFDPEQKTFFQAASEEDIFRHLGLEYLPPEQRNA

Binder	binding result (Polλ W239Y)	binding result (Polλ Q243R)	binding result (Polµ WT)
B1	binds	binds	–
B2	–	–	binds
